The values that follow come from patent US20230167185A1 (STRIKE PHARMA, published 2023).

For orientation: koff means a measure of how fast the partners let go of each other. A low value points to a long-lived complex. For orientation: kon means the rate constant with which the complex forms. Higher therefore signals fast association.

Experiment [1] deals with T1, Biotinylated human CD40 (AcroBiosystems #CD0-H82E8) (human, UniProt P25942 21-193).
T1 construct: also called hCD40-avi; Human CD40-avi; not shown: C-terminal Avi-tag
T1 sequence (P25942 21-193): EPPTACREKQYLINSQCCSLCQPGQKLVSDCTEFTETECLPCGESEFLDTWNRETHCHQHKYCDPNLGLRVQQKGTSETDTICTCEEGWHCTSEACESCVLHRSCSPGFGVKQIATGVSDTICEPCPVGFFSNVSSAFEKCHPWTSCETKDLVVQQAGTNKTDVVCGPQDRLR
In words: SPR, captured IgG2, SCK, 1:1 model. For orientation: Surface plasmon resonance follows binding to a sensor surface in real time, without labels.

Experiment [2] deals with T2, Mouse CD40 (AcroBiosystems #TN5-M52H8) (mouse, UniProt P27512 24-193).
T2 construct: range 24-193; also called mCD40
T2 sequence (P27512 24-193 limits assumed): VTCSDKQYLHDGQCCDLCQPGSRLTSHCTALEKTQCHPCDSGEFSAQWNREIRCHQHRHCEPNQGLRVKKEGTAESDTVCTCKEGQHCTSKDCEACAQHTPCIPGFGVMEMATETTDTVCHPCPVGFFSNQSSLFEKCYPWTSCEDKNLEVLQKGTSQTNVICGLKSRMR
In words: SPR, captured IgG2, single injection of mCD40.

The target of experiment [3] is T3, Human CD40 Fc chimera (R&D Systems #1493-CDB) (human, UniProt P25942 21-193).
T3 construct: also called hCD40-Fc
T3 sequence (P25942 21-193, change not shown): as the sequence (P25942 21-193) above
In words: SPR, captured IgG2, SCK, 1:1 model; apparent KD (appKD), dimeric antigen.

In experiment [4] the target is T4, Cynomolgus CD40 Fc chimera (R&D Systems #9660-CD) (cynomolgus, UniProt G7PG38 21-193).
T4 construct: range 21-193; also called cCD40-Fc
T4 sequence (G7PG38 entry or part of it mutant): as the sequence (P25942 21-193) above, with G43S, H56R, R70Q, W89L, A95S, L101P, S106L, H142R, L172Q counted along it
Described as above.

The target of experiment [5] is T5, caCD40-Fc (Sino Biological #70105-D02H) (canine, UniProt Q7YRL5 21-194).
T5 construct: also called Canine CD40-Fc; canine CD40; not shown: Fc part of the bought fusion
T5 sequence (looked up): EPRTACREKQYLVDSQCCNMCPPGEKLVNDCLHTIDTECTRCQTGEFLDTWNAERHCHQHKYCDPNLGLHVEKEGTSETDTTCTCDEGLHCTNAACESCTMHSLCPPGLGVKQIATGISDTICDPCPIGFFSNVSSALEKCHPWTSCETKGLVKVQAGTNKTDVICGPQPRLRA
In words: SPR, captured IgG2, caCD40-Fc 0.16-100 nM, SCK.

The target of experiment [6] is T3, Human CD40 Fc chimera (R&D Systems …). In words: SPR, captured IgG2, SCK, 1:1 model, dimeric antigen.
Experiment [7] concerns the target T4, Cynomolgus CD40 Fc chimera (R&D Systems …). Described as above.
Experiment [8] deals with human CD40 on cells (CD19+ cells of PBMC; monocyte-derived dendritic cells) (human, UniProt P25942 21-277). In words: cell-based or functional assay.
human CD40 on cells (CD19+ cells of PBMC; monocyte-derived dendritic cells), sequence (P25942 21-277 limits assumed): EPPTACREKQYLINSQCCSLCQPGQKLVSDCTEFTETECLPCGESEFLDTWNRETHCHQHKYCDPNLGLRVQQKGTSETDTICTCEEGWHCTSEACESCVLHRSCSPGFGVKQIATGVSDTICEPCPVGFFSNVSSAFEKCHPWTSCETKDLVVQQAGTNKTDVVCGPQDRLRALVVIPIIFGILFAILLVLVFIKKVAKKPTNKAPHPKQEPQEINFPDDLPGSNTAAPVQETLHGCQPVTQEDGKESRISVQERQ

B1: Y-SM083-A9 (antibody, human IgG2, kappa, V domains shown)
VH: EVQLLESGGGLVQPGGSLRLSCAASGFTFSSYAMSWVRQAPGKGLEWVSGISGYSGSTYYADSVKGRFTISRDNSKNTLYLQMNSLRAEDTAVYYCARYYSYYGYYYFDYWGQGTLVTVSS
VL: DIQMTQSPSSLSASVGDRVTITCRASQSISSYLNWYQQKPGKAPKLLIYAASSLQSGVPSRFSGSGSGTDFTLTISSLQPEDFATYYCQQGYPYPFTFGQGTKLEIKR
notes: also called A9 antibody; SP9
As for B1, the results for the Kd in experiment [1], in experiment [3] and in experiment [4] were 37 nM, 5.1 nM and 4.5 nM, respectively. The koff in experiment [1] came to 0.0061 s⁻¹; in experiment [6], 0.0016 s⁻¹; in experiment [7], 0.0022 s⁻¹. The results for the kon in experiment [1], in experiment [6] and in experiment [7] were 170000 M⁻¹ s⁻¹, 310000 M⁻¹ s⁻¹ and 500000 M⁻¹ s⁻¹, respectively. Also, the figures for the binding result in experiment [2] and in experiment [5] were “no binding (tested: 80 nM)” and “no binding (tested: 100 nM)”, respectively.

B2: X-SM083-bi-23 (bispecific antibody, human IgG2, kappa)
heavy: EVQLLESGGGLVQPGGSLRLSCAASGFTFSSYAMSWVRQAPGKGLEWVSGISGYSGSTYYADSVKGRFTISRDNSKNTLYLQMNSLRAEDTAVYYCARYYSYYGYYYFDYWGQGTLVTVSSASTKGPSVFPLAPCSRSTSESTAALGCLVKDYFPEPVTVSWNSGALTSGVHTFPAVLQSSGLYSLSSVVTVPSSNFGTQTYTCNVDHKPSNTKVDKTVERKCCVECPPCPAPPVAGPSVFLFPPKPKDTLMISRTPEVTCVVVDVSHEDPEVQFNWYVDGVEVHNAKTKPREEQFNSTFRVVSVLTVVHQDWLNGKEYKCKVSNKGLPAPIEKTISKTKGQPREPQVYTLPPSREEMTKNQVSLTCLVKGFYPSDIAVEWESNGQPENNYKTTPPMLDSDGSFFLYSKLTVDKSRWQQGNVFSCSVMHEALHNHYTQKSLSLSPGKGGGGSGGGGSEVQLLESGGGLVQPGGSLRLSCAASGFTFSNYWMSWVRQAPGKGLEWVSGISGNGGYTYFADSVKDRFTISRDNSKNTLYLQMNSLRAEDTAVYYCAGGDGSGWSFWGQGTLVTVSSGGGGSGGGGSGGGGSGGGGSQSVLTQPPSASGTPGQRVTISCTGSSSNIGAGYDVHWYQQLPGTAPKLLIYGNNNRPSGVPDRFSGSKSGTSASLAISGLRSEDEADYYCAAWDDSLSGRVFGGGTKLTVL
light: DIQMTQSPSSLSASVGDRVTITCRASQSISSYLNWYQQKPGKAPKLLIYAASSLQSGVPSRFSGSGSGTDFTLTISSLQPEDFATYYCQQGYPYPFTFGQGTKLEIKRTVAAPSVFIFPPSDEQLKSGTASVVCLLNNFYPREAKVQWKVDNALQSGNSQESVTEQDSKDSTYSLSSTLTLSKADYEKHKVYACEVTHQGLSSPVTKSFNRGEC
On to B2, for which the “agonistic activity relative to the parental antibody SP9 (A9) (IL-12 production by MoDCs)” value in experiment [8] came to 92%.

B3: Y-SM083-B8 (antibody, V domains shown)
VH: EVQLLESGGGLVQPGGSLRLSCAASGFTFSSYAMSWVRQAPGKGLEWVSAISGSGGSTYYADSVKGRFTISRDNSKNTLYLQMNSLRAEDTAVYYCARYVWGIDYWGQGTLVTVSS
VL: DIQMTQSPSSLSASVGDRVTITCRASQSISSYLNWYQQKPGKAPKLLIYAASSLQSGVPSRFSGSGSGTDFTLTISSLQPEDFATYYCQQGYGYPPFTFGQGTKLEIK
As to B3, the values for the Kd in experiment [1], in experiment [3] and in experiment [4] were 15 nM, 13 nM and 13 nM, respectively. In addition, the binding result in experiment [2] is reported as “no binding (tested: 80 nM)”. The molecule also registered a koff in experiment [6] of 0.0015 s⁻¹. Also, the kon in experiment [6] is 120000 M⁻¹ s⁻¹.
